Reference: patent WO2016071355A1 (dated 2016)

Key:
Experiment in all cases: SPR, antibody immobilized, peptide-Fc injected at 15 nM and 200 nM
[1] = target: human CD38 peptide-Fc fusion F7 (human, UniProt P0DOX5 223-449 = IgG part)
[2] = target: T1, human CD38 peptide-Fc fusion F3 (human, UniProt P0DOX5 223-449 = IgG part)
T1 construct: doubtful; also called F3 construct

[3] = target: human CD38 peptide-Fc fusion F2 (human, UniProt P0DOX5 223-449 = IgG part)
[4] = target: human CD38 peptide-Fc fusion F19 (human, UniProt P0DOX5 223-449 = IgG part)
[5] = target: human CD38 peptide-Fc fusion F20 (human, UniProt P0DOX5 223-449 = IgG part)
[6] = target: human CD38 peptide-Fc fusion F14 (human, UniProt P0DOX5 223-449 = IgG part)
[7] = target: T2, human CD38 peptide-Fc fusion F4 (human, UniProt P0DOX5 223-449 = IgG part)
T2 construct: doubtful

[8] = target: human CD38 peptide-Fc fusion F5 (human, UniProt P0DOX5 223-449 = IgG part)
[9] = target: human CD38 peptide-Fc fusion F13 (human, UniProt P0DOX5 223-449 = IgG part)
[10] = target: human CD38 peptide-Fc fusion F17 (human, UniProt P0DOX5 223-449 = IgG part)
[11] = target: human CD38 peptide-Fc fusion F11 (human, UniProt P0DOX5 223-449 = IgG part)
[12] = target: human CD38 peptide-Fc fusion F9 (human, UniProt P0DOX5 223-449 = IgG part)
[13] = target: human CD38 peptide-Fc fusion F8 (human, UniProt P0DOX5 223-449 = IgG part)
[14] = target: human CD38 peptide-Fc fusion F10 (human, UniProt P0DOX5 223-449 = IgG part)
[15] = target: human CD38 peptide-Fc fusion F18 (human, UniProt P0DOX5 223-449 = IgG part)
[16] = target: human CD38 peptide-Fc fusion F1 (human, UniProt P0DOX5 223-449 = IgG part)
[17] = target: human CD38 peptide-Fc fusion F15 (human, UniProt P0DOX5 223-449 = IgG part)
[18] = target: human CD38 peptide-Fc fusion F16 (human, UniProt P0DOX5 223-449 = IgG part)
[19] = target: human CD38 peptide-Fc fusion F12 (human, UniProt P0DOX5 223-449 = IgG part)

Measured: binding result

B1: humanized 9G7 antibody (best-fit version) of Example 10 (antibody, human IgG1, kappa, V domains shown)
VH: QVTLKESGPTLVKPTQTLTLTCTFSGLSLSTSGKGVGWIRQPPGKALEWLAHIWWDDDKRYNPALKSRLTITKDTSKNQVVLTMTNMDPVDTATYYCARIELGRSYVMDYWGQGTLVTVSS
VL: DIQMTQSPSSLSASVGDRVTITCQASQDVITSVAWFQQKPGKAPKLLIYSASYRYTGVPSRFSGSGSGTDFTFTISSLQPEDIATYYCQQHYTIPLTFGQGTKLEIKR
notes: also called h9G7
no binding (tested: 200 nM): all assays above
